Reference: the nanobody polyreactivity screen of Harvey et al. (2022)

Assay: yeast display, Sf9 membrane polyspecificity reagent, FACS + sequencing; frameworks hold sequencing errors
In short: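 Synthetic nanobody libraries on Saccharomyces cerevisiae BJ5465 were galactose-induced for 36–48 hours, stained 1 hour at 4 °C with 10% biotinylated, detergent-solubilized Sf9 membrane reagent and enriched on streptavidin microbeads. FACS then separated cells into low and high (top ~1%) gates by anti-HA (expression) and streptavidin (reagent binding) fluorescence. Genes were colony-PCR amplified, MiSeq 2 × 250 sequenced and CDR-length filtered. A clone's polyreactivity label is that of its gate of origin.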
For “QVQLVESGGGLVQAGGSLRLSCAASGIIFGTNAMGWYRQAPGKERELVAYITSGGSTYADSVKGRFTISRDNAKNTFYLQMHSLKPEDTEVYYCAAYVFWAFYEYDYWGQGTQVTVSS”, the “polyreactivity (PSR sort gate)” value was “low polyreactivity”. In the case of “QVQLVESGGGLVQAGGSLRLSCAASGIIFGTYAMGWYRQAPGKERELVAAITRSGGSTYYADSVMGRFTISRDNAKNTVYLQMNSLKPEDTAVYYCAASSTWYGYYIYVFRAYDYWGQGTQGTVSS”, the “polyreactivity (PSR sort gate)” value is reported as “low polyreactivity”. With “QVQLVESGGGLVQAGGSLRLSCAASGIIFGTYAMGWYRQAPGKERELVASISSRGGSTYYADTVKGRFTISRDNAKNTVYLQMNSLKPEDTAVYYCAARNAYPGNSMDSWGLGTQVTVSS” the “polyreactivity (PSR sort gate)” value was “high polyreactivity”. For “QVQLVESGGGLVQAGGSLRLSCAASGIIFGVNVMGWYRQAPGKERELVATITWRGDSTYYADSVKGRFTISRDNAKNTVYLQMNSLKPEDTAVYYCAVLRSWWYRYDYWGQGTQVTVSS”, the “polyreactivity (PSR sort gate)” value was “low polyreactivity”. With “QVQLVESGGGLVQAGGSLRLSCAASGIIFGWYAMGWYRQAPGKERELVAAISYSGGSTYYADSVKGRFTISRDNAKNTVYLQMNSLKPEDTAVYYCAVQRYWGQGTQVTVSS” the “polyreactivity (PSR sort gate)” value was “high polyreactivity”. With “QVQLVESGGGLVQAGGSLRLSCAASGIIFGWYAMGWYRQAPGKERELVAAITWSGASTYYADSVKGRFTISRDNAKNTVYLQMNSLKPEDTAVYYCAAESVDNIYYGFDYWGQGTQVTVSS” the “polyreactivity (PSR sort gate)” value was “high polyreactivity”. For “QVQLVESGGGLVQAGGSLRLSCAASGIIFGYSAMGWYRQAPGKERELVAAITRSGSSTYYADSVKGRFTISRDNAKNTVYLQMNSLKPEDTAVYYCAADNFYQSYGYWGQGTQVTVSS”, the “polyreactivity (PSR sort gate)” value was “low polyreactivity”. In the case of “QVQLVESGGGLVQAGGSLRLSCAASGIIFGYYAMGWYRQAPGKVRELVAAISWSGGSTYYADSVKGRFTFSRDNAKNTVYLQMNSLKPEDTAVYYCNAVYVSYTYQQTRSGGYDYWGQGTQVTVSS”, the “polyreactivity (PSR sort gate)” value is reported as “high polyreactivity”. With “QVQLVESGGGLVQAGGSLRLSCAASGIIFHLYTMGWYRQAPGKERELVAAISNNGGRTYYADSVKGRFTISRDNAKNTVYLQMNSLKPEDTAVYYCAKYLSPGERHSYDYWGQGTQVTVSS” the “polyreactivity (PSR sort gate)” value was “high polyreactivity”. For “QVQLVESGGGLVQAGGSLRLSCAASGIIFINYVMGWYRQAPGKESELVAAITGSGSSTYYADSVKGRFTISRDNAKNTVYLQMNSLKPEDTAVYYCAADNPRVRFLYYYWGQGTQVTVSS”, the “polyreactivity (PSR sort gate)” value was “high polyreactivity”. In the case of “QVQLVESGGGLVQAGGSLRLSCAASGIIFISYVMGWYRQAPGKERELVAAITRSGDSTYYADSVKGRFTISRDNAKNTVYVQMNSLKPEDTAVYYCAAEHAYSYWDYDYWGQGTQVTVSS”, the “polyreactivity (PSR sort gate)” value is reported as “high polyreactivity”. With “QVQLVESGGGLVQAGGSLRLSCAASGIIFKLYAMGWYRQAPGKEREFVATITKTGGRTYYEDSVKGRFTISRDNAKNTVYLQMNSLKPEDTAVYYCAARRVNGKMYYWGQGTQVTVSS” the “polyreactivity (PSR sort gate)” value was “high polyreactivity”. For “QVQLVESGGGLVQAGGSLRLSCAASGIIFKRYAMGWYRQAPGKDRELVAAISSRAGRTYYADSVKGRFTISRDNAKNNVYLQLNSLKPEDTAVYYCNTGLVYGYDYWGQGTQVTVSS”, the “polyreactivity (PSR sort gate)” value was “high polyreactivity”. With “QVQLVESGGGLVQAGGSLRLSCAASGIIFKSNAMGWSRQAPGKERELVAAIRSSGSTNYADSVKGRFTISRDNAKNTVYLQLNSLKPEDTAVYYCAVSSWSVWGHYYWGQGTQVTVSS” the “polyreactivity (PSR sort gate)” value was “high polyreactivity”. In the case of “QVQLVESGGGLVQAGGSLRLSCAASGIIFKYNAMGWSRQAPGKERELVAAITSGGSTYYADSVKGRFTISRDNAKNTVYLQRNSLKPEDTAVYYCAARYTYVKNFFRRLTAYYYWGQGTQVTVSS”, the “polyreactivity (PSR sort gate)” value is reported as “high polyreactivity”. In the case of “QVQLVESGGGLVQAGGSLRLSCAASGIIFKYNVMGWYTQAPGKERELVAAITDSGTSTFYADSVKGRFTISRDNAKNTVSLQMNSLKPEDTAFYYCAADEFSVFTIETYGYDYWGQGTQVTVSS”, the “polyreactivity (PSR sort gate)” value is reported as “low polyreactivity”. For “QVQLVESGGGLVQAGGSLRLSCAASGIIFLWYAMGWYRQAPGKERELVAAISRTGSSTYYADSVKGRFTISRDNAKNTVYFQMNSLKPEDTAVYYCAAAYYSKRSWRFDYWGQGTQVTVSS”, the “polyreactivity (PSR sort gate)” value was “high polyreactivity”. In the case of “QVQLVESGGGLVQAGGSLRLSCAASGIIFNDYAMGWYRQAPGKERELVATISWSGGSTYADSVKGRFTISRDNAKNTVYLQMNSLKPEDTAVYYCAAVPRRSYGGYPYYYWGQGTQVTVSS”, the “polyreactivity (PSR sort gate)” value is reported as “low polyreactivity”. For “QVQLVESGGGLVQAGGSLRLSCAASGIIFNGYAMGWYRQAPGKERELVAAISSSGGRTYYADSVKGRFTISRDNAKNTVYLQMNSLKPEDTAVYYCAADAAGSRVYPYDYWGQGTQVTVSS”, the “polyreactivity (PSR sort gate)” value was “high polyreactivity”. In the case of “QVQLVESGGGLVQAGGSLRLSCAASGIIFPFYAMGWYRKAPGKERELVAAITSDGNTNYADSVKGRFTISRDNAKNTVYLQMNSLKPEDTAVYYCNAETQYGVLSWHSTRHEYWGQGTQVTVSS”, the “polyreactivity (PSR sort gate)” value is reported as “low polyreactivity”. In the case of “QVQLVESGGGLVQAGGSLRLSCAASGIIFPFYAMGWYRQAPGKERELVAAITSGGDTYYADSVKGRFTISRDNAKNTVYLQMNSLKPEDTAVYYCAAVYRRQYGYWGQGTQVTVSS”, the “polyreactivity (PSR sort gate)” value is reported as “high polyreactivity”. With “QVQLVESGGGLVQAGGSLRLSCAASGIIFPPYTMGWYRQAPGKERELVAAINTRGSRTYYADSVKGRFTISRDNAKNTVYLQMNSLKPEDTAVYYCAADVWWSTTYDYWGQGTQVTVSS” the “polyreactivity (PSR sort gate)” value was “high polyreactivity”. In the case of “QVQLVESGGGLVQAGGSLRLSCAASGIIFPRYALGWYRQAPGKERELVAAITIGGRTNYADSVKGRFTISRDNAKNTVYLQMNSLKPEDPAVYYGAAQTYVPYYEYDYWGQGTQVTVSS”, the “polyreactivity (PSR sort gate)” value is reported as “low polyreactivity”. In the case of “QVQLVESGGGLVQAGGSLRLSCAASGIIFPSYVMGWYRQAPGKERELVAAISSRGTSTYYADSVKGRFTISRDHAKNTVYLQMNSLKPEDTAVYYCAAKSFGTTTRSEYDYWGQGTQVTVSS”, the “polyreactivity (PSR sort gate)” value is reported as “high polyreactivity”. In the case of “QVQLVESGGGLVQAGGSLRLSCAASGIIFPTYAMGWYRQAPGKERELVAAISVSGGTTSYADSVKGRFTISRDNAKNTVYLQMNSLKPEDTAVYYCAKRPFSTRYDYWGQGTQVTVSS”, the “polyreactivity (PSR sort gate)” value is reported as “high polyreactivity”. For “QVQLVESGGGLVQAGGSLRLSCAASGIIFPVYAMGWYRQAPGKERELVAAISNRAGSTYYADSVKGRFTISRDNAKNSVYLQMNSLKPEDTAVYYCAAASRRSGASSWYDYWGQGTQVTVSS”, the “polyreactivity (PSR sort gate)” value was “high polyreactivity”. In the case of “QVQLVESGGGLVQAGGSLRLSCAASGIIFPWYAMGWYRPAPGKERELVAAISGSGGSTYYADSVKGRFTISRDNAKNTVYLQMNSLKPEDTAVYYCAAYPRGSQRYNYGGQGTQVTVSS”, the “polyreactivity (PSR sort gate)” value is reported as “high polyreactivity”. With “QVQLVESGGGLVQAGGSLRLSCAASGIIFPYNAMGWYRQAPGKERELVAAITGGGSTYYADSVKGRFTISRDNAKNTVYLQMNSLKPEDTAVYYCAADRSGPGYDYWGQGTQVTVSS” the “polyreactivity (PSR sort gate)” value was “low polyreactivity”. For “QVQLVESGGGLVQAGGSLRLSCAASGIIFPYYAMGWYREAPGIERELVAGLDSSGSSTNYADSVKGRFTISRDTAKTTVYLQITSLQPEDTAVYYCAKVTSSGDAVLTQIPYGYDYWGQGTQVTVSS”, the “polyreactivity (PSR sort gate)” value was “low polyreactivity”. With “QVQLVESGGGLVQAGGSLRLSCAASGIIFPYYSMGWYRQAPGKERELVAAITSSGGSTYYADSVKGRFTISRDNAKNTVYLQMNSLKPEDTAVYYCAAQTWGHGGDSWGQGTQVTVSS” the “polyreactivity (PSR sort gate)” value was “high polyreactivity”. For “QVQLVESGGGLVQAGGSLRLSCAASGIIFQAYAKGWYRQAPGKERELVAAISYSGGSTYYAESVKGRFTISRDNAKNNVDLQMNRLKPEVTAVYYCAAELYRYWFDMYYWGQGTQVTVSS”, the “polyreactivity (PSR sort gate)” value was “low polyreactivity”. In the case of “QVQLVESGGGLVQAGGSLRLSCAASGIIFQPYAMGWYRQAPGKERELVAAITYSGDGTFYADSVKGRFTISRDNAKNTVYLQMNSLKPEDTAVYYCAAYPRDPYKEYDYWGQGTQVTVSS”, the “polyreactivity (PSR sort gate)” value is reported as “low polyreactivity”. In the case of “QVQLVESGGGLVQAGGSLRLSCAASGIIFQRNDMGWYRQAHGKERELVANIRDGGITYADSVKGRFTISRDNAKNTVYLKMNSLKPEDTAVYYCARDDTSPGYGDQSSNASNYYWGQGTQVTVSS”, the “polyreactivity (PSR sort gate)” value is reported as “low polyreactivity”. In the case of “QVQLVESGGGLVQAGGSLRLSCAASGIIFQRNDMGWYRQAPGKERELDANIRDGGITYADSVKGRFTISRDNAKNTVYLQMNSLKPEDTAVYYCARYDTSPGYGDQSSNAAYYYWGQVTQVTVSS”, the “polyreactivity (PSR sort gate)” value is reported as “low polyreactivity”. In the case of “QVQLVESGGGLVQAGGSLRLSCAASGIIFRGNALGWYRPAPGKERELVAAISRSGRTNYADSVKGRFTISRDNAKNTVYLQMNSLKPEDNAVYYCAVDKRYGRVVGRDYDYWGQGTQVTVSS”, the “polyreactivity (PSR sort gate)” value is reported as “high polyreactivity”. With “QVQLVESGGGLVQAGGSLRLSCAASGIIFRGYAMGWYRQAPGKERELVAAISKSGGSTYYADSVKGRFTISRDNAKNTVYLQMNSLKPEDTAVYYCAADVYKQYGYYYWGQGTQVTVSS” the “polyreactivity (PSR sort gate)” value was “high polyreactivity”. With “QVQLVESGGGLVQAGGSLRLSCAASGIIFRGYAMRWYRQAPGKVREVVAVITSGGGTYYADSVKGRFTISRDNAKNNVYLQMNSLKPEETAVYYCNAASSLPGYDYWGQGTQVTVSS” the “polyreactivity (PSR sort gate)” value was “high polyreactivity”. With “QVQLVESGGGLVQAGGSLRLSCAASGIIFRLNAMGWYRQAPGKERELGAAIRRRGGSTYYADSVKGRFTISRDNAKNTVYLQMNSLKPEDTAVYYCAADAPWAYYEYDYWGQGTQVTVSS” the “polyreactivity (PSR sort gate)” value was “low polyreactivity”. For “QVQLVESGGGLVQAGGSLRLSCAASGIIFRLNAMGWYRQAPGKERELVAAMRRRGGSTYYADSVKGRFTISRDNAKNTVYLQMNSLKPEDTAVYYCAKDPVTTFYKYDYWGQGTQVTVSS”, the “polyreactivity (PSR sort gate)” value was “low polyreactivity”. With “QVQLVESGGGLVQAGGSLRLSCAASGIIFRLNAMGWYRQAPGKVRELVAAIRRRGGSTYYADSVKGRFTISRDNAKNTVYLQMNSLKPEDTAVYYCAKDPHGSDFGYWGQGTQVTVSS” the “polyreactivity (PSR sort gate)” value was “low polyreactivity”. In the case of “QVQLVESGGGLVQAGGSLRLSCAASGIIFRNYAMGWYRQAPGKEREFVAAISYRGGTTYYADSVKGRFTISRDNAKNTVYLQMNSLKPEDTAVYYCAAPYYLQQSRYYYWGQGTQVTVSS”, the “polyreactivity (PSR sort gate)” value is reported as “high polyreactivity”. With “QVQLVESGGGLVQAGGSLRLSCAASGIIFRNYAMGWYRQAPGKERELVAAISSNGGSTYYADSVKGRFTISRDNAKNTVYLQMNSLKPEDTAVYYCAARHSLYGYWGQGTQVTVSS” the “polyreactivity (PSR sort gate)” value was “high polyreactivity”. In the case of “QVQLVESGGGLVQAGGSLRLSCAASGIIFRPYAMGWYRQAPGKERELVAAITWSGTSTYYADSVKGRFTISRDNAKNTVYLQMNSLKPEDTAVYYCAARNVFQSVHLRGGYWGQGTQVTVSS”, the “polyreactivity (PSR sort gate)” value is reported as “high polyreactivity”.
